Reference: publication PMC12583094 (2025)

Target: Myeloperoxidase (Homo sapiens, UniProt P05164)
Test: SPR

Myeloperoxidase, sequence (P05164 165-273): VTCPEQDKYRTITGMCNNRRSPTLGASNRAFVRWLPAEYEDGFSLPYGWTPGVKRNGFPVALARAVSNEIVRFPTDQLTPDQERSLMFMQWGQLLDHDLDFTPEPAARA

Binder: VPNHFNAP [VPNHFNAP peptide]
- Kd: 183 µM
